Test results: the supplement of paper PMC10567573

B1: CLCN6 (parent)
chain: ILRSQLVTLLVRGVCYSESQSSAS
B2: VPS39 (parent)
chain: ITEEKVCMVCKKKIGNSAFARYPN

Variants of: B1
Experiment: protein stability index of a GFP-peptide fusion (GPS, HEK-293T) (PSI 1-6); higher = more stable
Details: c terminus: a fixed tail appended
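Note: lentivirally expressed fusions sorted by FACS into six bins by GFP to DsRed ratio, PSI derived from sequencing read proportions per bin multiplied by bin number.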

Protein stability index: each site, then its substitutions
R12: T 2.56; H 4.29; S 3.78; A 2.38; W 2.29
L2: C 3.49; P 2.01; E 1.93; R 1.95; G 2.64
Q5: S 3.4; Y 3.81; C 3.81; A 1.97; T 2.06
S17: F 2.25; A 2.45; L 4.34; Y 2.78; R 2.36; G 2.54; N 3.71; E 2.11; P 2.5
E18: K 5.27; Y 2.54; A 2.15; I 3.81; M 2.09
T8: K 2.88; W 2.28; R 2.81; Y 2.21; S 2.29; C 3.51
S19: Q 1.79; D 2.21; P 1.82
Q20: F 2.4; K 4.02; W 2.38; T 1.8; V 2.68; Y 3.72; H 2.27; G 3.74
S22: Y 3.28; D 1.44; F 4.37; T 2.11; M 3.01; N 1.92; Q 3.86
C15: H 1.73; V 5.04; G 3.11; K 1.13; D 1.89; F 4.46
S24: P 3.9; D 2.68; K 2.49; V 2.87
Y16: P 3.6; N 2.37; R 3.34; I 2.94; C 2.31
A23: M 2.75; S 2.38; K 2.29; D 4.03; F 3.27; E 2.41; T 2; V 1.81
V11: H 2.78; Y 2.19; T 2.8; K 2; A 2.77; M 3.46
G13: W 1.7; S 2.89; P 2.69; I 2.7
S4: K 2.19; N 2.54; W 3.61
V14: M 1.59; G 2.1; I 2.79
L9: D 1.77; A 3.4; S 1.6; C 3.61; M 2.5; F 4.09
S21: A 3.29; F 2.54; Y 2.89; P 1.34; E 4.5; M 2.12; W 3.14
I1: K 3.63; P 2.04; L 3.03; W 3.34; T 2.87; A 3.79; M 3.86
V7: N 1.99; C 2.66; D 2.45; L 3.31
R3: V 2.67; K 3.85; W 3.08
L10: K 2.05; G 1.92; Y 2.23; I 2.14; A 1.07; V 1.92; E 2.53; P 2.52
L6: W 3.18; S 1.42; Q 1.66; D 1.55; I 2.86; A 2.2; K 2.08

Variants of: B2
Experiment: as above
Details: c terminus: a fixed tail appended

Protein stability index: each site, then its substitutions
I1: R 2.13; F 2.67; G 3.1; L 2.5; W 2.33; A 2.97; P 2.35; K 2.6; Y 2.49; N 2.78; C 2.24; M 2.2; E 3.18; V 2.95; D 3.39; H 2.59; Q 2.91; T 2.88; S 2.59
E3: D 2.55; G 2.13; H 1.94; V 1.82; I 3; A 1.97; N 1.84; Y 2.03; W 1.96; Q 2.53; T 1.97; C 1.26; L 1.91; M 1.39; R 3.83; F 1.51; K 1.44; S 1.97; P 2.25
T2: S 2.27; Y 2.34; H 3.16; V 2.67; R 2.55; E 2.72; W 1.77; D 2.92; F 2.9; N 2.79; A 2.94; G 2.15; I 2.43; Q 3.19; C 2.32; M 2.02; K 2.42; P 2.53; L 3.59
C10: N 4.14; R 3.96; W 2.59; I 2.45; A 3.13; K 2.77; G 4.21; V 2.84; H 3.32; P 3.97; S 4.14; E 4.15; M 2.94; F 2.04; L 2.38; D 3.67; Y 2.64
M8: F 3.02; Y 1.94; C 2.44; T 2.43; K 3.11; N 2.92; P 2.64; G 2.64; Q 3.22; D 2.95; S 3.29; I 2.6; L 2.65; A 2.91; W 1.51; H 2.31; E 2.85; R 2.39; V 3.23
K11: H 1.74; E 2.75; Q 2.29; C 1.42; F 1.54; L 1.42; P 2.76; D 3.21; M 1.66; G 2.58; A 2.19; I 1.85; N 1.81
V6: Y 2.52; Q 2.48; T 2.3; P 2.88; A 1.83; M 2.81; L 2.21; W 1.62; K 2.95; I 3.18; D 3.48; C 1.95; E 2.8; N 3.42; F 2.39; H 2.65; G 1.38; R 2.44; S 3.06
K5: Q 2.42; R 1.65; G 2.33; W 2.28; S 2.53; F 2.21; T 2.09; H 2.17; L 2.06; E 2.62; M 2.23; A 2.63; N 3.66; P 2.87; C 2.04; V 1.98; D 2.65; Y 1.55; I 1.78
C7: V 3.31; W 2.02; F 2.78; M 2.79; D 4.19; G 2.46; K 3.1; N 4.1; R 2.54; A 2.81; P 3.64; I 2.2; T 3.18; L 2.77; H 3.47; Q 3.31; Y 2.53; E 4.24; S 2.98
E4: A 1.47; I 2.06; M 2.57; Q 2.38; D 2.94; C 1.57; F 1.77; L 2.09; H 1.82; K 1.86; G 1.5; R 2.15; T 1.83; P 2.39; V 1.91; N 2.12; S 1.74; Y 2.15
V9: G 3.1; C 2.67; Q 3.4; D 2.71; W 2.34; S 3.35; M 2.69; N 3.33; I 2.06; E 3.53; R 3.61; K 3.58; F 2.27; P 3.59; Y 1.99; T 2.51; A 3.05; H 2.87; L 2.83
